Here are results for 6 molecules from patent publication US20140087995A1 (published 2014).

The assay addresses T1, human calcitonin receptor (human, UniProt P30988 25-474).
T1 sequence (looked up): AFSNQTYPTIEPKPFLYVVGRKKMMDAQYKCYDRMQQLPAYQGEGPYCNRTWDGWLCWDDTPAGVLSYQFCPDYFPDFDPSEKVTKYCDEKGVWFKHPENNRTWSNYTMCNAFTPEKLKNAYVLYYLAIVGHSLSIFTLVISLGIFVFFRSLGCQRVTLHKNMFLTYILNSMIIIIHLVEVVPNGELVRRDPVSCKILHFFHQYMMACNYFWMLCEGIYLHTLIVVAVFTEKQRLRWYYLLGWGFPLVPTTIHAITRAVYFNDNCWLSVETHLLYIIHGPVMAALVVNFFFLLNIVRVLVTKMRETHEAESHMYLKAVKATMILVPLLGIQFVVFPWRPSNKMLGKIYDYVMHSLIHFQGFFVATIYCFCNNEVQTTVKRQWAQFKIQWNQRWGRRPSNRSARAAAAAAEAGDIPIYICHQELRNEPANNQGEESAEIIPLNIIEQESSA
The assay can be described thus: cell-based or functional assay.

Numbered stars: 1 amine (or outer) side, 2 acyl side, 3 side chain; on linkers, the order of the positions; unused ones are H or OH. Bridge positions count the residues as written; N and C are the ends. Side chains are listed from the residue outwards. Ends that are not written are not given here. * marks the point of attachment. C20 diacid = O=C(O)CCCCCCCCCCCCCCCCCCC(=O)*; γGlu = O=C(O)[C@H](CCC(=O)[*:2])N[*:1]; AEEA = NCCOCCOCC(=O)O

B1: N^ε1-[2-[2-[2-[[(4S)-4-carboxy-4-(19-carboxynonadecanoylamino)butanoyl]amino]ethoxy]ethoxy]acetyl]-[Arg14,Arg17,Pro21,Pro27,Pro31]-h-amylin (peptide)
peptide: K([AEEA-γGlu-C20 diacid])CNTATCATQRLARFLRHSSPNFGAIPSSTPVGSNTY-NH2
modifications: disulfide 2-7; N-terminus assumed
SMILES: CC[C@H](C)[C@H](NC(=O)[C@H](C)NC(=O)CNC(=O)[C@H](Cc1ccccc1)NC(=O)[C@H](CC(N)=O)NC(=O)[C@@H]1CCCN1C(=O)[C@H](CO)NC(=O)[C@H](CO)NC(=O)[C@H](Cc1c[nH]cn1)NC(=O)[C@H](CCCNC(=N)N)NC(=O)[C@H](CC(C)C)NC(=O)[C@H](Cc1ccccc1)NC(=O)[C@H](CCCNC(=N)N)NC(=O)[C@H](C)NC(=O)[C@H](CC(C)C)NC(=O)[C@H](CCCNC(=N)N)NC(=O)[C@H](CCC(N)=O)NC(=O)[C@@H](NC(=O)[C@H](C)NC(=O)[C@@H]1CSSC[C@H](NC(=O)[C@@H](N)CCCCNC(=O)COCCOCCNC(=O)CC[C@H](NC(=O)CCCCCCCCCCCCCCCCCCC(=O)O)C(=O)O)C(=O)N[C@@H](CC(N)=O)C(=O)N[C@@H]([C@@H](C)O)C(=O)N[C@@H](C)C(=O)N[C@@H]([C@@H](C)O)C(=O)N1)[C@@H](C)O)C(=O)N1CCC[C@H]1C(=O)N[C@@H](CO)C(=O)N[C@@H](CO)C(=O)N[C@H](C(=O)N1CCC[C@H]1C(=O)N[C@H](C(=O)NCC(=O)N[C@@H](CO)C(=O)N[C@@H](CC(N)=O)C(=O)N[C@H](C(=O)N[C@@H](Cc1ccc(O)cc1)C(N)=O)[C@@H](C)O)C(C)C)[C@@H](C)O
notes: also called compound 64
For the molecule B1, the “hCTR funct. EC50” value came to 22.9 nM.

B2: N^ε1-[2-[2-[2-[[(4S)-4-carboxy-4-(19-carboxynonadecanoylamino)butanoyl]amino]ethoxy]ethoxy]acetyl]-[Arg17,Pro21,Pro27,Arg34]-h-amylin (peptide)
peptide: K([AEEA-γGlu-C20 diacid])CNTATCATQRLANFLRHSSPNFGAIPSSTNVGRNTY-NH2
modifications: disulfide 2-7; N-terminus assumed
SMILES: CC[C@H](C)[C@H](NC(=O)[C@H](C)NC(=O)CNC(=O)[C@H](Cc1ccccc1)NC(=O)[C@H](CC(N)=O)NC(=O)[C@@H]1CCCN1C(=O)[C@H](CO)NC(=O)[C@H](CO)NC(=O)[C@H](Cc1c[nH]cn1)NC(=O)[C@H](CCCNC(=N)N)NC(=O)[C@H](CC(C)C)NC(=O)[C@H](Cc1ccccc1)NC(=O)[C@H](CC(N)=O)NC(=O)[C@H](C)NC(=O)[C@H](CC(C)C)NC(=O)[C@H](CCCNC(=N)N)NC(=O)[C@H](CCC(N)=O)NC(=O)[C@@H](NC(=O)[C@H](C)NC(=O)[C@@H]1CSSC[C@H](NC(=O)[C@@H](N)CCCCNC(=O)COCCOCCNC(=O)CC[C@H](NC(=O)CCCCCCCCCCCCCCCCCCC(=O)O)C(=O)O)C(=O)N[C@@H](CC(N)=O)C(=O)N[C@@H]([C@@H](C)O)C(=O)N[C@@H](C)C(=O)N[C@@H]([C@@H](C)O)C(=O)N1)[C@@H](C)O)C(=O)N1CCC[C@H]1C(=O)N[C@@H](CO)C(=O)N[C@@H](CO)C(=O)N[C@H](C(=O)N[C@@H](CC(N)=O)C(=O)N[C@H](C(=O)NCC(=O)N[C@@H](CCCNC(=N)N)C(=O)N[C@@H](CC(N)=O)C(=O)N[C@H](C(=O)N[C@@H](Cc1ccc(O)cc1)C(N)=O)[C@@H](C)O)C(C)C)[C@@H](C)O
notes: also called compound 78
Consider B2, for which the “hCTR funct. EC50” value turned out to be 8.17 nM.

B3: N^ε1-[2-[2-[2-[[(4S)-4-carboxy-4-(19-carboxynonadecanoylamino)butanoyl]amino]ethoxy]ethoxy]acetyl]-[His14,Arg17,Pro21,Pro27,Arg34]-h-amylin (peptide)
peptide: K([AEEA-γGlu-C20 diacid])CNTATCATQRLAHFLRHSSPNFGAIPSSTNVGRNTY-NH2
modifications: disulfide 2-7; N-terminus assumed
SMILES: CC[C@H](C)[C@H](NC(=O)[C@H](C)NC(=O)CNC(=O)[C@H](Cc1ccccc1)NC(=O)[C@H](CC(N)=O)NC(=O)[C@@H]1CCCN1C(=O)[C@H](CO)NC(=O)[C@H](CO)NC(=O)[C@H](Cc1c[nH]cn1)NC(=O)[C@H](CCCNC(=N)N)NC(=O)[C@H](CC(C)C)NC(=O)[C@H](Cc1ccccc1)NC(=O)[C@H](Cc1c[nH]cn1)NC(=O)[C@H](C)NC(=O)[C@H](CC(C)C)NC(=O)[C@H](CCCNC(=N)N)NC(=O)[C@H](CCC(N)=O)NC(=O)[C@@H](NC(=O)[C@H](C)NC(=O)[C@@H]1CSSC[C@H](NC(=O)[C@@H](N)CCCCNC(=O)COCCOCCNC(=O)CC[C@H](NC(=O)CCCCCCCCCCCCCCCCCCC(=O)O)C(=O)O)C(=O)N[C@@H](CC(N)=O)C(=O)N[C@@H]([C@@H](C)O)C(=O)N[C@@H](C)C(=O)N[C@@H]([C@@H](C)O)C(=O)N1)[C@@H](C)O)C(=O)N1CCC[C@H]1C(=O)N[C@@H](CO)C(=O)N[C@@H](CO)C(=O)N[C@H](C(=O)N[C@@H](CC(N)=O)C(=O)N[C@H](C(=O)NCC(=O)N[C@@H](CCCNC(=N)N)C(=O)N[C@@H](CC(N)=O)C(=O)N[C@H](C(=O)N[C@@H](Cc1ccc(O)cc1)C(N)=O)[C@@H](C)O)C(C)C)[C@@H](C)O
notes: also called compound 84
Turning to B3, the “hCTR funct. EC50” value was found to be 5.49 nM.

B4: N^ε1-[2-[2-[2-[[(4S)-4-carboxy-4-(19-carboxynonadecanoylamino)butanoyl]amino]ethoxy]ethoxy]acetyl]-[Arg17,Pro21,Pro27,His34]-h-amylin (peptide)
peptide: K([AEEA-γGlu-C20 diacid])CNTATCATQRLANFLRHSSPNFGAIPSSTNVGHNTY-NH2
modifications: disulfide 2-7; N-terminus assumed
SMILES: CC[C@H](C)[C@H](NC(=O)[C@H](C)NC(=O)CNC(=O)[C@H](Cc1ccccc1)NC(=O)[C@H](CC(N)=O)NC(=O)[C@@H]1CCCN1C(=O)[C@H](CO)NC(=O)[C@H](CO)NC(=O)[C@H](Cc1c[nH]cn1)NC(=O)[C@H](CCCNC(=N)N)NC(=O)[C@H](CC(C)C)NC(=O)[C@H](Cc1ccccc1)NC(=O)[C@H](CC(N)=O)NC(=O)[C@H](C)NC(=O)[C@H](CC(C)C)NC(=O)[C@H](CCCNC(=N)N)NC(=O)[C@H](CCC(N)=O)NC(=O)[C@@H](NC(=O)[C@H](C)NC(=O)[C@@H]1CSSC[C@H](NC(=O)[C@@H](N)CCCCNC(=O)COCCOCCNC(=O)CC[C@H](NC(=O)CCCCCCCCCCCCCCCCCCC(=O)O)C(=O)O)C(=O)N[C@@H](CC(N)=O)C(=O)N[C@@H]([C@@H](C)O)C(=O)N[C@@H](C)C(=O)N[C@@H]([C@@H](C)O)C(=O)N1)[C@@H](C)O)C(=O)N1CCC[C@H]1C(=O)N[C@@H](CO)C(=O)N[C@@H](CO)C(=O)N[C@H](C(=O)N[C@@H](CC(N)=O)C(=O)N[C@H](C(=O)NCC(=O)N[C@@H](Cc1c[nH]cn1)C(=O)N[C@@H](CC(N)=O)C(=O)N[C@H](C(=O)N[C@@H](Cc1ccc(O)cc1)C(N)=O)[C@@H](C)O)C(C)C)[C@@H](C)O
notes: also called compound 76
Regarding B4, the “hCTR funct. EC50” value was found to be 7.37 nM.

B5: N^ε1-[2-[2-[2-[[(4S)-4-carboxy-4-(19-carboxynonadecanoylamino)butanoyl]amino]ethoxy]ethoxy]acetyl]-[Arg14,Arg17,Pro21,Pro27]-h-amylin (peptide)
peptide: K([AEEA-γGlu-C20 diacid])CNTATCATQRLARFLRHSSPNFGAIPSSTNVGSNTY-NH2
modifications: disulfide 2-7; N-terminus assumed
SMILES: CC[C@H](C)[C@H](NC(=O)[C@H](C)NC(=O)CNC(=O)[C@H](Cc1ccccc1)NC(=O)[C@H](CC(N)=O)NC(=O)[C@@H]1CCCN1C(=O)[C@H](CO)NC(=O)[C@H](CO)NC(=O)[C@H](Cc1c[nH]cn1)NC(=O)[C@H](CCCNC(=N)N)NC(=O)[C@H](CC(C)C)NC(=O)[C@H](Cc1ccccc1)NC(=O)[C@H](CCCNC(=N)N)NC(=O)[C@H](C)NC(=O)[C@H](CC(C)C)NC(=O)[C@H](CCCNC(=N)N)NC(=O)[C@H](CCC(N)=O)NC(=O)[C@@H](NC(=O)[C@H](C)NC(=O)[C@@H]1CSSC[C@H](NC(=O)[C@@H](N)CCCCNC(=O)COCCOCCNC(=O)CC[C@H](NC(=O)CCCCCCCCCCCCCCCCCCC(=O)O)C(=O)O)C(=O)N[C@@H](CC(N)=O)C(=O)N[C@@H]([C@@H](C)O)C(=O)N[C@@H](C)C(=O)N[C@@H]([C@@H](C)O)C(=O)N1)[C@@H](C)O)C(=O)N1CCC[C@H]1C(=O)N[C@@H](CO)C(=O)N[C@@H](CO)C(=O)N[C@H](C(=O)N[C@@H](CC(N)=O)C(=O)N[C@H](C(=O)NCC(=O)N[C@@H](CO)C(=O)N[C@@H](CC(N)=O)C(=O)N[C@H](C(=O)N[C@@H](Cc1ccc(O)cc1)C(N)=O)[C@@H](C)O)C(C)C)[C@@H](C)O
notes: also called compound 82
On to B5, for which the “hCTR funct. EC50” value came to 12.7 nM.

B6: N^ε1-[2-[2-[2-[[(4S)-4-carboxy-4-(19-carboxynonadecanoylamino)butanoyl]amino]ethoxy]ethoxy]acetyl]-[Gly14,Arg17,Pro21,Pro27,Pro31]-h-amylin (peptide)
peptide: K([AEEA-γGlu-C20 diacid])CNTATCATQRLAGFLRHSSPNFGAIPSSTPVGSNTY-NH2
modifications: disulfide 2-7; N-terminus assumed
SMILES: CC[C@H](C)[C@H](NC(=O)[C@H](C)NC(=O)CNC(=O)[C@H](Cc1ccccc1)NC(=O)[C@H](CC(N)=O)NC(=O)[C@@H]1CCCN1C(=O)[C@H](CO)NC(=O)[C@H](CO)NC(=O)[C@H](Cc1c[nH]cn1)NC(=O)[C@H](CCCNC(=N)N)NC(=O)[C@H](CC(C)C)NC(=O)[C@H](Cc1ccccc1)NC(=O)CNC(=O)[C@H](C)NC(=O)[C@H](CC(C)C)NC(=O)[C@H](CCCNC(=N)N)NC(=O)[C@H](CCC(N)=O)NC(=O)[C@@H](NC(=O)[C@H](C)NC(=O)[C@@H]1CSSC[C@H](NC(=O)[C@@H](N)CCCCNC(=O)COCCOCCNC(=O)CC[C@H](NC(=O)CCCCCCCCCCCCCCCCCCC(=O)O)C(=O)O)C(=O)N[C@@H](CC(N)=O)C(=O)N[C@@H]([C@@H](C)O)C(=O)N[C@@H](C)C(=O)N[C@@H]([C@@H](C)O)C(=O)N1)[C@@H](C)O)C(=O)N1CCC[C@H]1C(=O)N[C@@H](CO)C(=O)N[C@@H](CO)C(=O)N[C@H](C(=O)N1CCC[C@H]1C(=O)N[C@H](C(=O)NCC(=O)N[C@@H](CO)C(=O)N[C@@H](CC(N)=O)C(=O)N[C@H](C(=O)N[C@@H](Cc1ccc(O)cc1)C(N)=O)[C@@H](C)O)C(C)C)[C@@H](C)O
notes: also called compound 71
For B6, the “hCTR funct. EC50” value was found to be 0.527 nM.
